Reference: publication PMC4624198

Biological target: T1, HTP-3 (G490K, G728K), Strep-tagged (C. elegans), O01820
T1 chain: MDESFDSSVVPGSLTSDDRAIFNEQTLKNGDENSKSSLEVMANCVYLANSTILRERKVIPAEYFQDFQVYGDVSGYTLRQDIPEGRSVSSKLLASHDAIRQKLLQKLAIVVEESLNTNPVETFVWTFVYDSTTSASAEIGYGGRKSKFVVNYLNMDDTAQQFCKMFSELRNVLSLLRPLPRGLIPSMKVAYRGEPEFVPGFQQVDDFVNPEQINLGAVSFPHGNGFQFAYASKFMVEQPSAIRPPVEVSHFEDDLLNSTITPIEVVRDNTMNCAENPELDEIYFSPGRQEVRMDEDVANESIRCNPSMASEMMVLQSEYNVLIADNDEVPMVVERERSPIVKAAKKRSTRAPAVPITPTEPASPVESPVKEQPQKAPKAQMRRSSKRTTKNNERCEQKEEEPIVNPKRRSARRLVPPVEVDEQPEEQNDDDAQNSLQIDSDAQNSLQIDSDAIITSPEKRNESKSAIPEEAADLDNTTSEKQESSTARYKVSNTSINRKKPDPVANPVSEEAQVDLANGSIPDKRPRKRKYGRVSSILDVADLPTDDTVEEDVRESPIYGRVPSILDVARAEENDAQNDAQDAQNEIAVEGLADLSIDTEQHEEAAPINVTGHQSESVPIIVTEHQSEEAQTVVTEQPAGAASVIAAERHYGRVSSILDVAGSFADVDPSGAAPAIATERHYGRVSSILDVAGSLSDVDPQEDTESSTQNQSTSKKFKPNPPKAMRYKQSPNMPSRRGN
Test: pull-down
Settings: remark: other sources report otherwise

HTP-1 bound, percent of the amount bound to the wild-type complex: 10%
B1: HTP-1, untagged, Q20305 1-352 (natural protein)
chain: MAPLETIYDESLNKSADSIDDKKWSKLFPRIVSDPDRSSNFMTRAIYVAFSAVLRNRNILGQEYFTKNYITEKLKCMTLCFRNPRSNQIAQLLRNAGDATKDGFLKEVSLVITNNEGDLEAIEVFSMKFIYFENGGVVARLSTDKNGQEDPHFAKLAQLVYEGGDSVRDQMVTIVRSVQFLCTKVLEPLPEEFTANFRLEYTNDAPSNFRIDGFEDSSTFYTLPDDIQSATIGHLRPGCHAANMECWSMLMSDSYEAELTLKRHLDKVSDRHGFNPVNVLYKSFNSEDSDTSLSQATTESVNDQGGNETSPVDDITESLEKAQMSPIQTRPTTRRGADGSKTRSSPYSRSCK
